Measured values taken from publication PMC4780704, “A Parallel G Quadruplex-Binding Protein Regulates the Boundaries of DNA Elimination Events of Tetrahymena thermophila”.

Experiments:
His-Lia3 [1] = biological target: T1, His-Lia3 (Tetrahymena thermophila, UniProt A3F815 1-322); assay: competition; 5X/20X vs G4-M1 probe; EMSA: 10 mM Tris pH 7.5, 1 mM EDTA, 0.1 mM DTT, 5% glycerol, 0.010 mg/ml BSA, 100 mM KCl (or 100 mM LiCl to limit G4), 4 nM probe, RT; details: protein: recombinant; tags: N-terminal His; parallel intermolecular G4, 4 strands (100 mM KCl)
T1 sequence: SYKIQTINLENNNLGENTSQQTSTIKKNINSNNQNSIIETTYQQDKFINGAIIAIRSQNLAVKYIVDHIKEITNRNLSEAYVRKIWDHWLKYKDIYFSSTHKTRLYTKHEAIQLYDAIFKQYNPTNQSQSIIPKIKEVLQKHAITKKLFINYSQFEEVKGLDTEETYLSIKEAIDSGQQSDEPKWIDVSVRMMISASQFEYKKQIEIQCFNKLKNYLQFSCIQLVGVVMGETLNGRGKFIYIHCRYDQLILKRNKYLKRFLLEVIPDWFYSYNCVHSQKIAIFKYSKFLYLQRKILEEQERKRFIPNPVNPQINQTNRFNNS

His-Lia3 [2] = biological target: T1, His-Lia3; assay: EMSA; 100 mM KCl; EMSA: 10 mM Tris pH 7.5, 1 mM EDTA, 0.1 mM DTT, 5% glycerol, 0.010 mg/ml BSA, 100 mM KCl (or 100 mM LiCl to limit G4), 4 nM probe, RT; details: protein: recombinant; tags: N-terminal His; label: 32P (5' PNK); mixed G4 (100 mM KCl)
MBP-Lia3 = biological target: T2, MBP-Lia3 (Tetrahymena thermophila, UniProt A3F815 1-322); assay: competition; excess vs G4-M1 probe; 400 nM protein; EMSA: 10 mM Tris pH 7.5, 1 mM EDTA, 0.1 mM DTT, 5% glycerol, 0.010 mg/ml BSA, 100 mM KCl (or 100 mM LiCl to limit G4), 4 nM probe, RT; details: protein: recombinant; tags: N-terminal MBP-TEV-His; linear, no G4
T2 sequence: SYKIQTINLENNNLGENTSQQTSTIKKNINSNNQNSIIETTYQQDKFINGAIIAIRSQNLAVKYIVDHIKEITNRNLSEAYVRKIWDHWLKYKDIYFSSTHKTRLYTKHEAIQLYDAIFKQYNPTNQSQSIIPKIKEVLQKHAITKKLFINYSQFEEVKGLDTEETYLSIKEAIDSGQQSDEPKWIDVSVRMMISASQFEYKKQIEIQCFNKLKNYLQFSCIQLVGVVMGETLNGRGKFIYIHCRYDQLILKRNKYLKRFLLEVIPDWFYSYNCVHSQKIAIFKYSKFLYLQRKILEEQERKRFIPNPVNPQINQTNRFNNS

TTCAAGACAAAAAAAGGGGGATGGGTTTCC (structured_DNA) [G4-M2]
binding result (His-Lia3 [1]): binds

TTGGGGTTGGGGTTGGGGTTGGGG (structured_DNA) [G4 Tetrahymena telomere]
Kd (His-Lia3 [2]): 11.5 µM

TTTATTAATCAAAAACCCGGTAAATAATAA (ssDNA) [M1-C3 (C3G2 mutant)]
binding result (MBP-Lia3): no binding
